According to the supplement of paper PMC9942255:

Tested on: Bacillus subtilis DB104 (SP-AmyQ fusion secretion)
Assay: AmyQ secretion efficiency, weighted average sort bin (1 = best secretion, 10 = worst) (bin number (weighted average, 1-10)); higher = lower secretion efficiency
How it was run: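 In this assay, the secretion score is defined as the average bin number weighted by read frequency, normalised to beads per bin, with low-abundance sequences not counted. B. subtilis DB104 cells expressing mature AmyQ behind designed signal peptides (amyE-integrated) were enclosed with fluorescein-starch in ~65 nL alginate beads at about 0.3 cells per bead. Beads grew about 13 h at room temperature, were stained with nile red, and occupied beads went into 10 equally populated green/red fluorescence ratio bins by large-particle flow cytometry, whose amplicons were Illumina-sequenced.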

MKKTIMFVAVAALSTTAFGAHASAKEI
AmyQ secretion efficiency: 3

MKKTIMSFFFVAVAALSTTAFGAHASAKEI
AmyQ secretion efficiency: 2.53

MKKTIMSFKRKKALSTTAFGAHASAKEI
AmyQ secretion efficiency: 7.79

MKKTIMSFKRKKKKSTTAFGAHASAKEI
AmyQ secretion efficiency: 6.45

MKKTIMSFVAVAALSTGAHASAKEI
AmyQ secretion efficiency: 2.46

MKKTIMSFVAVAALSTTAFEEDHASAKEI
AmyQ secretion efficiency: 2.56

MKKTIMSFVAVAALSTTAFFAIASAKEI
AmyQ secretion efficiency: 6.16

MKKTIMSFVAVAALSTTAFGAHASAADD
AmyQ secretion efficiency: 2.13

MKKTIMSFVAVAALSTTAFGAHASAAKR
AmyQ secretion efficiency: 2.03

MKKTIMSFVAVAALSTTAFGAHASAATI
AmyQ secretion efficiency: 2.11

MKKTIMSFVAVAALSTTAFGAHASAATK
AmyQ secretion efficiency: 3.57

MKKTIMSFVAVAALSTTAFGAHASAKKR
AmyQ secretion efficiency: 2.68

MKKTIMSFVAVAALSTTAFGAHASFKEI
AmyQ secretion efficiency: 5.37

MKKTIMSFVAVAALSTTAFGAHASGKEI
AmyQ secretion efficiency: 2.91

MKKTIMSFVAVAALSTTAFGAHASLKEI
AmyQ secretion efficiency: 6.92

MKKTIMSFVAVAALSTTAFGAHASPKEI
AmyQ secretion efficiency: 3.96

MKKTIMSFVAVAALSTTAFGAHASRKEI
AmyQ secretion efficiency: 4.66

MKKTIMSFVAVAALSTTAFGAHASSKEI
AmyQ secretion efficiency: 3.17

MKKTIMSFVAVAALSTTAFGAHASTKEI
AmyQ secretion efficiency: 5.13

MKKTIMSFVAVAALSTTAFGAHASWKEI
AmyQ secretion efficiency: 6.56

MKKTIMSFVAVAALSTTAFGAHASYKEI
AmyQ secretion efficiency: 7

MKKTIMSFVAVAALSTTAFGAHCSAKEI
AmyQ secretion efficiency: 2.42

MKKTIMSFVAVAALSTTAFGAHFSAKEI
AmyQ secretion efficiency: 4.73

MKKTIMSFVAVAALSTTAFGAHGVFPASASAKEI
AmyQ secretion efficiency: 3.09

MKKTIMSFVAVAALSTTAFGAHISAKEI
AmyQ secretion efficiency: 4.65

MKKTIMSFVAVAALSTTAFGAHLSAKEI
AmyQ secretion efficiency: 2.5

MKKTIMSFVAVAALSTTAFGAHPTASAKEI
AmyQ secretion efficiency: 2.53

MKKTIMSFVAVAALSTTAFGAHRSAKEI
AmyQ secretion efficiency: 5.69

MKKTIMSFVAVAALSTTAFGAHSSAKEI
AmyQ secretion efficiency: 3.37

MKKTIMSFVAVAALSTTAFGAHTSAKEI
AmyQ secretion efficiency: 2.69

MKKTIMSFVAVAALSTTAFGAHVSAKEI
AmyQ secretion efficiency: 2.83

MKKTIMSFVAVAALSTTAFKRRHASAKEI
AmyQ secretion efficiency: 7.04

MKKTIMSFVAVAALSTTAFQPHASAKEI
AmyQ secretion efficiency: 2.23

MKKTIMSFVAVAALSTTAFRRRKKKHASAKEI
AmyQ secretion efficiency: 6.72

MKKTIMSFVAVAALSTTAFTGAHASAKEI
AmyQ secretion efficiency: 2.34

MKKTIMSFVAVAALSTTAFVAFTTSTLSGAHASAKEI
AmyQ secretion efficiency: 4.48

MKKTIMSFVAVAALSTTAFVLSSFGAHASAKEI
AmyQ secretion efficiency: 3.42

MKKTIMSQKQTAALSTTAFGAHASAKEI
AmyQ secretion efficiency: 7.42

MKKTIMSTYGVAALSTTAFGAHASAKEI
AmyQ secretion efficiency: 8.21

MKKTLAAGIIGLLTVSIASPSFAAEK
AmyQ secretion efficiency: 2.62

MKKTMTIGLLFMLCLAALFTIGFPAQQADAAEA
AmyQ secretion efficiency: 2.9

MKKTRQTLVILGALGTSYISADSS
AmyQ secretion efficiency: 5.19

MKKTSGTKYKCQSLILSVLAAPPSGAKAESV
AmyQ secretion efficiency: 7.18

MKKTSSFNFSSTAFLVFLSVVLVTTVFLVKQQESVAQAKQL
AmyQ secretion efficiency: 2.65

MKKTTNVLMAFIICLSLILSVLAAPPSGAKAESV
AmyQ secretion efficiency: 2.36

MKKTTTKYFMFGLVMGFSQFQPSTVFAADK
AmyQ secretion efficiency: 3.56

MKKVGLLAGCLAAGGFSYNAFATEN
AmyQ secretion efficiency: 6.86

MKKVILAAFILVGSTLGAFSFSSDASAKHV
AmyQ secretion efficiency: 2.08

MKKVKKRKRKCLSLILSVLAAPPSGAKAESV
AmyQ secretion efficiency: 7.36

MKKVKKRRIICLSLILSVLAAPPSGAKAESV
AmyQ secretion efficiency: 1.81

MKKVKRAFIICLSLILSVLAAPPSGAKAESV
AmyQ secretion efficiency: 1.67

MKKVLMAFIICLSLILDVLAAPPSGAKAESV
AmyQ secretion efficiency: 1.95

MKKVLMAFIICLSLILEDDDEEDSGAKAESV
AmyQ secretion efficiency: 4.1

MKKVLMAFIICLSLILQGGKGPPGGAKAESV
AmyQ secretion efficiency: 5.23

MKKVLMAFIICLSLILRRRKKPPSGAKAESV
AmyQ secretion efficiency: 7.24

MKKVLMAFIICLSLILSAKAESV
AmyQ secretion efficiency: 4.24

MKKVLMAFIICLSLILSGLAAPPSGAKAESV
AmyQ secretion efficiency: 2.28

MKKVLMAFIICLSLILSTISSVLAAPPSGAKAESV
AmyQ secretion efficiency: 2.8

MKKVLMAFIICLSLILSVLAAAKAESV
AmyQ secretion efficiency: 4.23

MKKVLMAFIICLSLILSVLAAPPSGAKAAED
AmyQ secretion efficiency: 3.24

MKKVLMAFIICLSLILSVLAAPPSGAKAARR
AmyQ secretion efficiency: 2.06

MKKVLMAFIICLSLILSVLAAPPSGAKAASE
AmyQ secretion efficiency: 1.49

MKKVLMAFIICLSLILSVLAAPPSGAKAASK
AmyQ secretion efficiency: 1.85

MKKVLMAFIICLSLILSVLAAPPSGAKAASV
AmyQ secretion efficiency: 1.88

MKKVLMAFIICLSLILSVLAAPPSGAKAKRR
AmyQ secretion efficiency: 2.43

MKKVLMAFIICLSLILSVLAAPPSGAKCESV
AmyQ secretion efficiency: 3.94

MKKVLMAFIICLSLILSVLAAPPSGAKEESV
AmyQ secretion efficiency: 3.2

MKKVLMAFIICLSLILSVLAAPPSGAKGESV
AmyQ secretion efficiency: 2.46

MKKVLMAFIICLSLILSVLAAPPSGAKIESV
AmyQ secretion efficiency: 5.54

MKKVLMAFIICLSLILSVLAAPPSGAKLESV
AmyQ secretion efficiency: 8.94

MKKVLMAFIICLSLILSVLAAPPSGAKMESV
AmyQ secretion efficiency: 4.39

MKKVLMAFIICLSLILSVLAAPPSGAKPESV
AmyQ secretion efficiency: 4.65

MKKVLMAFIICLSLILSVLAAPPSGAKQESV
AmyQ secretion efficiency: 2.57

MKKVLMAFIICLSLILSVLAAPPSGAKSESV
AmyQ secretion efficiency: 3.92

MKKVLMAFIICLSLILSVLAAPPSGAKTESV
AmyQ secretion efficiency: 5.06

MKKVLMAFIICLSLILSVLAAPPSGAKVESV
AmyQ secretion efficiency: 4.98

MKKVLMAFIICLSLILSVLAAPPSGCKAESV
AmyQ secretion efficiency: 1.89

MKKVLMAFIICLSLILSVLAAPPSGDKAESV
AmyQ secretion efficiency: 5.71

MKKVLMAFIICLSLILSVLAAPPSGEKAESV
AmyQ secretion efficiency: 6.63

MKKVLMAFIICLSLILSVLAAPPSGGKAESV
AmyQ secretion efficiency: 5

MKKVLMAFIICLSLILSVLAAPPSGHKAESV
AmyQ secretion efficiency: 7.55

MKKVLMAFIICLSLILSVLAAPPSGIKAESV
AmyQ secretion efficiency: 3.36

MKKVLMAFIICLSLILSVLAAPPSGKKAESV
AmyQ secretion efficiency: 8.34

MKKVLMAFIICLSLILSVLAAPPSGMKAESV
AmyQ secretion efficiency: 1.84

MKKVLMAFIICLSLILSVLAAPPSGNKAESV
AmyQ secretion efficiency: 4.42

MKKVLMAFIICLSLILSVLAAPPSGPKAESV
AmyQ secretion efficiency: 3.78

MKKVLMAFIICLSLILSVLAAPPSGQKAESV
AmyQ secretion efficiency: 7.08

MKKVLMAFIICLSLILSVLAAPPSGSAVSAKAESV
AmyQ secretion efficiency: 2.05

MKKVLMAFIICLSLILSVLAAPPSGSKAESV
AmyQ secretion efficiency: 3.67

MKKVLMAFIICLSLILSVLAAPPSGTKAESV
AmyQ secretion efficiency: 2.94

MKKVLMAFIICLSLILSVLAAPPSGVKAESV
AmyQ secretion efficiency: 1.85

MKKVLMAFIICLSLILTLTSVIFISVLAAPPSGAKAESV
AmyQ secretion efficiency: 2.47

MKKVLMAFIICLSLILVVLAAGPSTAKAESV
AmyQ secretion efficiency: 1.98

MKKVLMAFIICLSVLAAPPSGAKAESV
AmyQ secretion efficiency: 2.14

MKKVMLATALFLGLTFTTFAPAGANAADL
AmyQ secretion efficiency: 2.89

MKKVMLATALFLGLTPAGANAARR
AmyQ secretion efficiency: 4.33

MKKVMLATALFLGLTPAGANAASK
AmyQ secretion efficiency: 2.96

MKKVMLATALFLGLTPAGANARKR
AmyQ secretion efficiency: 6.61

MKKVMLATALFLGLTPAGANIADL
AmyQ secretion efficiency: 6.67

MKKVMLATALFLGLTPAGVNAADL
AmyQ secretion efficiency: 4.08

MKKVMLATALFLGLTPANAADL
AmyQ secretion efficiency: 8.14

MKKVMLATALFLGLTPDGANAADL
AmyQ secretion efficiency: 4

MKKVMLATALFLGLTRRKANAADL
AmyQ secretion efficiency: 7.36

MKKVMLATALFLPAGANAADL
AmyQ secretion efficiency: 7.34

MKKVRRATALFLGLTPAGANAADL
AmyQ secretion efficiency: 7.17

MKKVSALTPSTTLAITAKAKEL
AmyQ secretion efficiency: 6.89

MKKVVLVLSIAGIGGFSVHAASS
AmyQ secretion efficiency: 6.91

MKKVVSALSISALALSVSGVASAHEI
AmyQ secretion efficiency: 2.8

MKKWIYGGQTGKIAGIGGFSVHAASS
AmyQ secretion efficiency: 6.97

MKKWIYIMSFMIVVLVLSIAGIGGFSVHAASS
AmyQ secretion efficiency: 4

MKKWIYTVLVLSIAGIGGFSVHAASS
AmyQ secretion efficiency: 6.39

MKKWIYTYKVLSIAGIGGFSVHAASS
AmyQ secretion efficiency: 6.93

MKKWIYVKKKKKKAGIGGFSVHAASS
AmyQ secretion efficiency: 6.75

MKKWIYVRKKRSIAGIGGFSVHAASS
AmyQ secretion efficiency: 7.24

MKKWIYVRRVLSIAGIGGFSVHAASS
AmyQ secretion efficiency: 7.43

MKKWIYVVLVLSIAGIGGFSAFGPVTAVHAASS
AmyQ secretion efficiency: 2.96

MKKWIYVVLVLSIAGIGGFSDHAASS
AmyQ secretion efficiency: 6.49

MKKWIYVVLVLSIAGIGGFSGHAASS
AmyQ secretion efficiency: 5.88

MKKWIYVVLVLSIAGIGGFSLHAASS
AmyQ secretion efficiency: 6.87

MKKWIYVVLVLSIAGIGGFSMHAASS
AmyQ secretion efficiency: 5.22

MKKWIYVVLVLSIAGIGGFSNHAASS
AmyQ secretion efficiency: 6.81

MKKWIYVVLVLSIAGIGGFSSHAASS
AmyQ secretion efficiency: 6.17

MKKWIYVVLVLSIAGIGGFSVHAAED
AmyQ secretion efficiency: 5.68

MKKWIYVVLVLSIAGIGGFSVHAASR
AmyQ secretion efficiency: 5.28

MKKWIYVVLVLSIAGIGGFSVHAKKR
AmyQ secretion efficiency: 6.58

MKKWIYVVLVLSIAGIGGFSVHCASS
AmyQ secretion efficiency: 6.47

MKKWIYVVLVLSIAGIGGFSVHDASS
AmyQ secretion efficiency: 7.82

MKKWIYVVLVLSIAGIGGFSVHGASS
AmyQ secretion efficiency: 7.27

MKKWIYVVLVLSIAGIGGFSVHIASS
AmyQ secretion efficiency: 6.47
